Measurements from patent US20090305399A1.
Like-named read-outs stand apart in the source and are kept apart here. Ends that are not written are not given here.

Legend:
Test in all cases: cell-based or functional assay
[1] = biological target: human Kv1.3 channel (human) (UniProt P22001)
[2] = biological target: human Kv1.1 channel (human) (UniProt Q09470)
[3] = biological target: human Kv1.3 channel (human) (UniProt P22001); remark: listed apart in the source

human Kv1.3 channel (human), sequence (P22001 whole entry): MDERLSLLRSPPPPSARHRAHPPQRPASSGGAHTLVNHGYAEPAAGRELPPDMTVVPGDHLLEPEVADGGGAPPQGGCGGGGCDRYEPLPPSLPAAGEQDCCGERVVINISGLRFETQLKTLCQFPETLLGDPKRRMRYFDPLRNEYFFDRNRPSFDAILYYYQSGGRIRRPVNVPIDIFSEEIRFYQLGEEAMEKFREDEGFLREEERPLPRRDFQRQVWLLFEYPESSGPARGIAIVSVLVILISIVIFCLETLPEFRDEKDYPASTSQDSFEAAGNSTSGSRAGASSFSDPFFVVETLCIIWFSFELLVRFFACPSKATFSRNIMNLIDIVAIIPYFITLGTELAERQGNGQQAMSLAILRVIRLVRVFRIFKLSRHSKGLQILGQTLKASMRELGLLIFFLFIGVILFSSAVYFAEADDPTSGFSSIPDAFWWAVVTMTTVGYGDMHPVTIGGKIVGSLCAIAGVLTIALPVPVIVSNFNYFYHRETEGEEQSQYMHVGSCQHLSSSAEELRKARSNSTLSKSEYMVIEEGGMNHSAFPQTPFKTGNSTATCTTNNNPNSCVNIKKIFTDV
human Kv1.1 channel (human), sequence (Q09470 whole entry): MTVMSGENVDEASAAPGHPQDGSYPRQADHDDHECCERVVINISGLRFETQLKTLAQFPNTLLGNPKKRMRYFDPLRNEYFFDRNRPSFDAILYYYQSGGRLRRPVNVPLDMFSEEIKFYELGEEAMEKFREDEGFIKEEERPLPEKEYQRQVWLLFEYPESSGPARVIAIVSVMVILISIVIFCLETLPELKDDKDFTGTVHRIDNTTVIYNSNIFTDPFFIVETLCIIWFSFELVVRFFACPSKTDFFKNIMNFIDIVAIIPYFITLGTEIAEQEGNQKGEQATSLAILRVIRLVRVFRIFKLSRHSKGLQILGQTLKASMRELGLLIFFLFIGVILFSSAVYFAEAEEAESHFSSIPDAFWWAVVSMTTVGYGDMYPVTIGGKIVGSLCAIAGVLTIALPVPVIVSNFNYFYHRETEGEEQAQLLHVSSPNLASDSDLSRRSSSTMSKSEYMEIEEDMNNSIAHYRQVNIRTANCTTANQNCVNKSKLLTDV

Molecule: PEG-Fc-L10-SHK(2-35), Pool # 2 (Fc fusion)
- IC50 Sustained [1]: 0.158 nM

Molecule: PEG-Fc-L10-OSK1, Pool # 2 (Fc fusion)
- IC50 Sustained [1]: 0.332 nM

Molecule: PEG-Fc-L10-SHK(2-35), Pool # 3 (Fc fusion)
- IC50 Sustained [1]: 0.175 nM

Molecule: OSK1 analogue E16K, K20D (peptide)
- WB/IFNg IC50 (human whole blood IFNg response) [1]: 1.32 nM
- WB/IL-2 IC50 (human whole blood IL-2 response) [1]: 1.58 nM

Molecule: Fc-L5-ShK[2-35] (Fc fusion)
- IC50 of block of outward potassium current, whole cell patch clamp [1]: 0.1 nM

Molecule: CHO-derived Fc-L10-ShK[2-35] (Fc fusion)
- IC50 of block of outward potassium current, whole cell patch clamp [1]: 0.115 nM

Molecule: E. coli-derived Fc-L-ShK[2-35] (Fc fusion)
- Kv1.3 IC50 by IWQ (nM), CHO/Kv1.3 cells [1]: 2.8 nM
- Kv1.3 IC50 by WCVC (nM), HEK293/Kv1.3 cells [1]: 1.3 nM

Molecule: E. coli-derived Fc-L-OSK1 (Fc fusion)
- Kv1.3 IC50 by WCVC (nM), HEK293/Kv1.3 cells [1]: 3.2 nM

Molecule: synthetic OSK1 toxin peptide
- IC50 of block of outward potassium current, whole cell patch clamp [1]: 0.039 nM

Molecule: E. coli-derived ShK[2-35]-L-Fc (Fc fusion)
- Kv1.3 IC50 by IWQ (nM), CHO/Kv1.3 cells [1]: 4.9 nM

Molecule: E. coli-derived Fc-L-ShK[1-35] (Fc fusion)
- Kv1.3 IC50 by WCVC (nM), HEK293/Kv1.3 cells [1]: 1.4 nM

Molecule: 20k PEG-ShK (peptide)
- WB/IFNg IC50 (human whole blood IFNg response) [1]: 0.065 nM
- WB/IL-2 IC50 (human whole blood IL-2 response) [1]: 0.046 nM

Molecule: Fc-L25-ShK[2-35] (Fc fusion)
- IC50, whole cell patch clamp on HEK293/Kv1.3 cells [1]: 0.15 nM

Molecule: GGGGS-Osk1 (peptide)
- WB/IFNg IC50 (human whole blood IFNg response) [1]: 2.2 nM
- WB/IL-2 IC50 (human whole blood IL-2 response) [1]: 1.36 nM

Molecule: PEG-Fc-L10-OSK1, Pool # 3 (Fc fusion)
- IC50 Sustained [1]: 0.256 nM

Molecule: 20k PEG-OSK1[Ala29, 1Nal34] (peptide)
- WB/IFNg IC50 (human whole blood IFNg response) [1]: 0.081 nM
- WB/IL-2 IC50 (human whole blood IL-2 response) [1]: 0.049 nM

Molecule: E. coli-derived Shk[1-35]-L-Fc (Fc fusion)
- Kv1.3 IC50 by IWQ (nM), CHO/Kv1.3 cells [1]: 2.4 nM

Molecule: OSK1 (wild-type) (peptide)
- Kv1.3 IC50, whole cell patch clamp ePhys [1]: 0.039 nM
- Kv1.3 Selectivity (=Kv1.1/Kv.3 IC50) [1]: 5 fold
- Kv1.1 IC50, whole cell patch clamp ePhys [2]: 0.202 nM

B1: synthetic ShK[2-35] (peptide)
peptide: SCIDTIPKSRCTAFQCKHSMKYRLSFCRKTCGTC
modifications: not fully specified; ends and bridges not checked
- IC50 of block of outward potassium current, whole cell patch clamp [3]: 0.049 nM
